According to paper PMC5659210, “Extending the biocatalytic scope of regiocomplementary flavin-dependent halogenase enzymes” (Chemical Science, 2015):

Assays:
Experiment in all cases: Michaelis-Menten chlorination assay, HPLC, Fre-coupled
Assay type in all cases: biochemical, Pseudomonas fluorescens
Details in all cases: Fre in excess, 30 °C
[1] = substrate: NC(=O)c1ccccc1N
Excerpt: (§1) Michaelis-Menten chlorination assay, HPLC, Fre-coupled on PrnA

[2] = substrate: N[C@@H](Cc1c[nH]c2ccccc12)C(=O)O
Excerpt: as §1

[3] = substrate: Nc1ccccc1C(=O)C[C@H](N)C(=O)O
Excerpt: as §1

[4] = substrate: Nc1ccccc1C(=O)O
Excerpt: as §1

B1: PrnA (Pseudomonas fluorescens) (protein)
chain: MNKPIKNIVIVGGGTAGWMAASYLVRALQQQANITLIESAAIPRIGVGEATIPSLQKVFFDFLGIPEREWMPQVNGAFKAAIKFVNWRKSPDPSRDDHFYHLFGNVPNCDGVPLTHYWLRKREQGFQQPMEYACYPQPGALDGKLAPCLSDGTRQMSHAWHFDAHLVADFLKRWAVERGVNRVVDEVVDVRLNNRGYISNLLTKEGRTLEADLFIDCSGMRGLLINQALKEPFIDMSDYLLCDSAVASAVPNDDARDGVEPYTSSIAMNSGWTWKIPMLGRFGSGYVFSSHFTSRDQATADFLKLWGLSDNQPLNQIKFRVGRNKRAWVNNCVSIGLSSCFLEPLESTGIYFIYAALYQLVKHFPDTSFDPRLSDAFNAEIVHMFDDCRDFVQAHYFTTSRDDTPFWLANRHDLRLSDAIKEKVQRYKAGLPLTTTSFDDSTYYETFDYEFKNFWLNGNYYCIFAGLGMLPDRSLPLLQHRPESIEKAEAMFASIRREAERLRTSLPTNYDYLRSLRDGDAGLSRGQRGPKLAAQESL
notes: full-length, pET28a (NdeI/NotI), expressed in E. coli Arctic Express, HisTrap purified
Work on B1 yielded a Km [1] of 3267 ± 491 µM, a kcat [1] of 0.035 ± 0.00167 s⁻¹ and a kcat/Km [1] of 11.7 ± 1.67 M⁻¹ s⁻¹. It also gave a Km [2] of 0.7 ± 0.1 µM, a kcat [2] of 0.0183 ± 0.000833 s⁻¹ and a kcat/Km [2] of 28300 ± 3330 M⁻¹ s⁻¹. For the same protein, the Km [3] was 19.0 ± 2.2 µM, the kcat [3] was 0.0617 ± 0.00167 s⁻¹ and the kcat/Km [3] was 3330 ± 167 M⁻¹ s⁻¹. For the same protein, the Km [4] was 3161 ± 986 µM, the kcat [4] was 0.0085 ± 0.00117 s⁻¹ and the kcat/Km [4] was 2.67 ± 0.833 M⁻¹ s⁻¹.
